Experimental data published in the supplement of paper PMC9170038.

What was measured:
MS2 coat protein [1] = assay: apparent KD of MS2 coat protein, switch ON state; designed switch direction (-1 OFF switch, 1 ON switch): -1; higher = weaker reporter binding; conditions: FMN input: 0 or 200 uM; Eterna round: R93 (includes R88 designs)
In short: (§1)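 Designed RNA switches, transcribed on-chip from Illumina sequencing clusters, were titrated with SNAP-549-labelled MS2 coat protein from 0.7 or 1.5 nM to 3 µM in twofold steps. The solution was 100 mM Tris-HCl pH 7.5, 80 mM KCl, 4 mM MgCl2, with constant ligand or without it. Apparent KD is the median over each design's normalised cluster binding-curve fits.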

MS2 coat protein [2] = assay: apparent KD of MS2 coat protein, switch OFF state (with FMN for OFF switches, without FMN for ON switches); designed switch direction (-1 OFF switch, 1 ON switch): -1; higher = weaker reporter binding; conditions: FMN input: 0 or 200 uM; Eterna round: R93 (includes R88 designs)
In short: as §1

Row | Sequence | apparent KD of MS2 coat protein (MS2 coat protein [1]) [nM] | apparent KD of MS2 coat protein (MS2 coat protein [2]) [nM]
1 | ACAUGACAUGAGGAUCACCCAUGUGAGGAUAUGCGAAAAAAAUUUUUAAAAAAAAUUGGCAGAAGGCACAAAAU [George Ritzer.] | 88.9 | 99.1
2 | AAGAAGAUAGGAUAUACAAAAUAAAAGAAAAGAAAGAAAGAACAUGAGGAUCACCCAUGUAGAAGGGUCAAGAA [Kheperkare Senusret I] | 54.6 | 56.5
3 | AACUGACAUGAGGAUCACCCAUGUCAGGAUAUGCUUCUAGGAAAAAAAAAAACUAGAUGCAGAAGGGAUAUGGA [Design 37 :P Sub-opt 13] | 14.5 | 12.1
4 | CCUGAACAUGAGGAUCACCCAUGUGAGGAUAUGAUGCGAAUAAAGAAAGAAGAAAGCAUCAGAAGGCACAUAGG [Mod of Disincluded 3 v.4] | 28 | 43.4
5 | AAACUACUAGGAUAUGCAGAAAGGGUGUAUCCUUAAACUCCACAUGAGGAUCACCCAUGUAGAAGGAGUAAUCG [Dilaquis] | 32.4 | 46.4
6 | AUAAAGUGAGGAUAUGUAAAAAUAACGAAAGUUAUAAAUAAACAGAAGGCACAUGAGGAUCACCCAUGUGAAAU [Meechl MS2 EX4 62% 2] | 24.2 | 22.5
7 | AACUGACAUGAGGAUCACCCAUGUCAGGAUAUGACAUCGAAAAAAAAAAAAAUCGUUGUCAGAAGGGACAUGGA [Design 74: Sub-opt R] | 20.9 | 32.5
8 | AAGAAACAUGAGGAUCACCCAUGUCAGGAUAUGUAAAAGAAAAGAAAAGAAAGAAGAAACAGAAGGGACAAAGG [Neferkaure] | 83.9 | 126
9 | AAAUAGUUAGGAUAUACAUGAGGAUCACCCAUGUGCACGUAUGGAGAAUAUGGUAAUGGUAGAAGGGACUAAAA [EX2 Malc#21] | 44.5 | 76.5
10 | AGUUGGCGAGGAUAUACAUGAGGAUCACCCAUGUGAAAUAAAUAAAAAAUAAAAGGGAGUAGAAGGCGCUGACA [73%, Moding Norbert Elias, 17] | 43.6 | 82.3
11 | AGCAAGUGAGGAUAUGCGAAGUCAGGACACACACUGACGAAGCAGAAGGCACAUGAGGAUCACCCAUGUAAGCA [JR_Exclusion-4 65% 1] | 33.1 | 27.1
12 | AAAAUGAAAGGAUAUACAUGAGGAUCACCCAUGUUCCAGAACAGGAGUACAAGCGAGUGUAGAAGGUUCAGCAA [Ercesois] | 22.3 | 42.7
13 | AAACGUUGAGGAUAUACAGAAGGGUAUAAAUCAUAAAAAACACAUGAGGAUCACCCAUGUAGAAGGCAACGAAA | 97.9 | 46.8
14 | GUAGAGUGAGGAUAUGAAUAAAAGAAGAGAAAGAGAAAGCAUCAGAAGGCACAUGAGGAUCACCCAUGUAUGAA [JR_Exc004_Sub1225] | 29.2 | 25.3
15 | AAAAAGGAAGGAUAUACGAACAUGUCAAAAGACGUGAAGGGACAUGAGGAUCACCCAUGUAGAAGGUCUAAAAA [JL Half Open 26] | 32.4 | 22.9
16 | GGAAAGCGAGGAUAUACAUGAGGAUCACCCAUGUUAACAAACAAACAAACAAACAAAAGUAGAAGGCGCAAAAU [Exclusion 3 This and That] | 42.6 | 41.1
17 | AAAAAGUGAGGAUAUACGCUGUGGAGUAGACACAACCAGUCGUAGAAGGCACAUGAGGAUCACCCAUGUCCAAA [EX4 Malc#19] | 22 | 49.6
18 | AAGAAGACAGGAUAUACAUGAGGAUCACCCAUGUAAAAGAAAGAAAAGGGAAAGAAAAGUAGAAGGGUCAAGAA [Menkheperure Thutmose IV] | 39.6 | 36.8
19 | AACGAGUCAGGAUAUACAAAAAGUAAAUAAGUAAAACCAAAGUAGAAGGGACAUGAGGAUCACCCAUGUAAAUA [JR_Exc004_Sub019] | 42.8 | 24.4
20 | AAAAGACAUGAGGAUCACCCAUGUGAGGAUAUGCGAAAAAAAAAAAUAAAAAAAAAAAGUAGAAGGCACACCAA [Mat - Exclusion 1 - Eli mod - D56] | 177 | 248
21 | AAAAAACAUGAGGAUCACCCAUGUCAGGAUAUCCUAAAGAAACUCGUAAAAAGAAAUAGGAGAAGGGACAAAAA [PK4] | 53.7 | 46.7
22 | AAGAAGGUAGGAUAUGCUAAAGAAAUAAAAAUAAAUAAAGAACAUGAGGAUCACCCAUGUAGAAGGGCCAAGAA [Mer[...]re] | 47.3 | 27.9
23 | AAGAACUGAGGAUAUACAUAAUAAAAGAAAAGAAACAAAGAACAUGAGGAUCACCCAUGUAGAAGGCGGAAGAA [Menwadjre Sihathor] | 29.4 | 20.7

Row | Sequence | apparent KD of MS2 coat protein (MS2 coat protein [1]) [nM] | apparent KD of MS2 coat protein (MS2 coat protein [2]) [nM]
24 | AUCAUGUCAGGAUAUCAGUAGUAAAAAAAAAAAAUUACUACUGAGAAGGGACAUGAGGAUCACCCAUGUCCAAA [EX4 306: Super Stable 6] | 32.1 | 46.2
25 | AAGAACUGAGGAUAUACAAAAGAAAAGAAAAGAAAGAAAGAACAUGAGGAUCACCCAUGUAGAAGGCGGAAGAA [Khahotepre Sobekhotep VI] | 31.5 | 14.7
26 | AAAAAACAUGAGGAUCACCCAUGUGAGGAUAUUCAAAAAAAAAAAAAAAACACAAGAAGGAGAAGGCACAAAAA [Default title] | 29.6 | 73
27 | AAAUAGCAAGGAUAUACAUGAGGAUCACCCAUGUGAAAAAGGUAUGGAAUAGAAUAGAGUAGAAGGUGCAAAUA [Mod of Ex 3 Tesla 8 - Jieux - Exclusion 3] | 24.9 | 35.7
28 | AAGAAAGCAGGAUAUACAUGAGGAUCACCCAUGUAAAAGAAAGAGGGAAAAGAGAAAAGUAGAAGGGCUAAGAA [Cleopatra IV] | 37.3 | 33.8
29 | GAAAAACAUGAGGAUCACCCAUGUCAGGAUAUCCAAAUAAAAAUAAAAUAAAAUAAAAGGAGAAGGGACAAAAG [Mat - Same state - Mayanna Mod - D101] | 42.4 | 40
30 | AAGAAGUGAGGAUAUCGAAGACUGUCGAAAAGACAGUCGAACGAGAAGGCACAUGAGGAUCACCCAUGUGAGAA [Marsurpial 65% 1] | 31 | 55.6
31 | AAGAAUGGAGGAUAUACAUGAGGAUCACCCAUGUAAAAGAAAGAGGGAAAAGAGAAAAGUAGAAGGCCAAAGAA [Ptolemy VII Neos Philopator] | 36 | 34.4
32 | AGAGAGUCAGGAUAUACGAAAGAAAAGGGAAACAACAAGGGACAUGAGGAUCACCCAUGUAGAAGGGACGAGAA [Diamond 99] | 99.8 | 49.8
33 | AUAAAGAGAGGAUAUACAUGAGGAUCACCCAUGUAAGAAAUAAAAUAAAUAAAGGGAAGUAGAAGGCUCAAAUA [Denovo 2] | 28 | 42.5
34 | GAAAAGUCAGGAUAUGUGGAAAAAAUAAAAAAAAUAAAAACACAGAAGGGACAUGAGGAUCACCCAUGUUAAAG [Mat - Exclusion 4 - Mayanna - D138] | 41.5 | 32.5
35 | CUCUAGUGAGGAUAUACAAGAAAAGAAAAGAAAGAAAAGAAGUAGAAGGCACAUGAGGAUCACCCAUGUAAGAA [EteRNA is fun!] | 24.8 | 30.2
36 | AAGAAAGUAGGAUAUACAAGGAAGAAAGAAAAGAAAAGAAAACAUGAGGAUCACCCAUGUAGAAGGACUUAGAA [EteRNA is fun!] | 27.5 | 18.7
37 | AACAGUACAGGAUAUACAUGAGGAUCACCCAUGUGGGAAUUAAGUGGCGUACCACAAAGUAGAAGGGUACUGGA [Moding Maslow revisited (73)] | 72.5 | 172
38 | AAGAAACAUGAGGAUCACCCAUGUCAGGAUAUGCAGGACUGACGAAAGUCAGUCCAAAGCAGAAGGGACUAGAA [8-pair stack] | 29.9 | 56.5
39 | AGAGGACAUGAGGAUCACCCAUGUGAGGAUAUGCAAAACUAAGGACAAGAUCGGUAUAGCAGAAGGCACGUAGU [JR_EXc001_Sub808] | 46.7 | 78.2
40 | GGAAAACAUGAGGAUCACCCAUGUAAGGAUAUGCUAGGGAAGGAAAAAAACCCACCAGGCAGAAGGUACUAAAG [Janelle Amethyst 18 Mod 5 - Jieux - Exclusion 1] | 22.9 | 41.4
41 | CGCAAACAUGAGGAUCACCCAUGUGAGGAUAUGUGAGCACGAGAAAGAUAAAGUGAGCACAGAAGGCACAAGCG [JR_Exclusion1_Sub6] | 34.8 | 27.3
42 | AACAAGUGAGGAUAUCGGAAAAGAAAAUAAGAUACACAAAACGAGAAGGCACAUGAGGAUCACCCAUGUAAAUA [JR_Exc004_Sub012] | 35.9 | 41.5
43 | CGGGAGUCAGGAUAUACGAACAUGUCGCCAGAUGUCAAGGUACAUGAGGAUCACCCAUGUAGAAGGGAGGAGAG [salish99-Ex2-34] | 80.8 | 65
44 | AAAAAGUCAGGAUAUGCAGAUAAAAAAACGAAAAAAAAUCUGCAGAAGGGACAUGAGGAUCACCCAUGUAAAAA [Ex 4 May 5] | 48.5 | 40.4
45 | AAAAAACAUGAGGAUCACCCAUGUCAGGAUAUCUGGAGAAACGGAAAGAAAAAGAAACGGAGAAGGGACAUAAA [Starryjess mod] | 29.6 | 28.5
